The source of these data is patent US8507651B2, “Treatment of diseases and conditions mediated by increased phosphorylation” (DMI Acquisition Corp., priority 2002, dated 2013).

For this test, the system named is IL-8 release by Jurkat cells. Nature of the test: Inhibition of IL-8 release from PMA/ionomycin-stimulated Jurkat cells, IL-8 ELISA of supernatants (Example 1). Type of test: cell-based, human. Particulars: PMA and ionomycin; for IL-8 / Percent Inhibition Of IL-8 Release: 24 hours; for IL-8: positive control 1119.2; for Percent Inhibition Of IL-8 Release: vs positive control; for Inhibition of IL-8 release as compared to the positive control (in words): summary of Table 1. As to the method:
Jurkat cells (American Type Culture Collection (ATCC), Rockville, Md.) were cultured (1×10^6 cells per 0.5 ml culture) in IMDM culture medium (ATCC) containing insulin transferrin selenite solution (ITSS; Sigma) with and without phosvitin or BSA at 37° C., 5% CO2, for 30 minutes. Then, phorbol-12-myristate-13-acetate (PMA; […]; Sigma) and ionomycin ([…]; Sigma) were added to stimulate the cells, and the cells were further cultured at 37° C., 5% CO2, for 24 hours.
Cell culture supernatants were analyzed for IL-8 content by ELISA. The IL-8 ELISA was performed as follows. Anti-human IL-8 antibody (Pierce Endogen, Rockford, Ill.; catalogue number M801-E, lot number CK41959) was diluted to 1 μg/ml in phosphate buffered saline, pH 7.2-7.4, and 100 μl of the diluted antibody was added to each well of Nunc Maxisorb ELISA strip plates. The plates were incubated overnight at room temperature. The liquid was aspirated from the wells, and the plates were blotted on a paper towel. Then, 200 μl of assay buffer (phosphate buffered saline, pH 7.2-7.4, containing 4% BSA) were added to each well, and the plates were incubated for 1 hour at room temperature. The liquid was aspirated from the wells, and the wells were washed 3 times with wash buffer (50 mM Tris, 0.2% Tween-20, pH 7.9-8.1) and were then blotted on a paper towel. Standards and supernatant samples (50 μl/well; standards were diluted in assay buffer) were added to the wells, and the plates were incubated for 1 hour at room temperature with gentle shaking. The liquid was aspirated, the wells were washed 3 times with wash buffer, and the plates were then blotted on a paper towel. Then, 100 μl of biotin-labeled anti-human IL-8 (Pierce Endogen, Rockford, Ill.; catalogue number M802-E, lot number CE49513), diluted to 60 ng/ml in assay buffer, were added to each well. The plates were incubated for 1 hour at room temperature, the liquid was aspirated, the wells were washed 3 times with wash buffer, and the plates were blotted on a paper towel. Then, 100 μl of HRP-conjugated streptavidin (Pierce Endogen, Rockford, Ill.; catalogue number N100) in assay buffer, were added to each well. The plates were incubated for 30 minutes at room temperature, the liquid was aspirated, the wells were washed 3 times with wash buffer, and the plates were blotted on a paper towel. Finally, 100 μl of TMB substrate solution (Pierce Endogen, Rockford, Ill.; catalogue number N301) were added to each well. The plates were incubated for 30 minutes at room temperature. The reaction was stopped by adding 100 μl/well of 0.18 M H2SO4. The optical densities at 450 mu and 530 nm were read on an ELISA plate reader and the difference (OD 450-OD 530) calculated.

On to “Sigma BSA (untreated): Bovine serum albumin from Sigma (ELIS grade, low fatty acid and IgG), used as received [reference compound]”, for which the “Inhibition of IL-8 release as compared to the positive control (in words)” value is recorded as “did not significantly inhibit the release of IL-8”. In addition, for the setting “1.0 mg/ml sample”, the “IL-8” value is 1048.1 pg/mL and the “Percent Inhibition Of IL-8 Release” value came to 6.3%.

B1: chicken egg yolk phosvitin (dephosphorylated): Phosvitin extracted from the yolks of chicken eggs and dephosphorylated; estimated about 20-50% dephosphorylated (protein, UniProt P02845 1112-1328, looked up)
Phosvitin: AEFGTEPDAKTSSSSSSASSTATSSSSSSASSPNRKKPMDEEENDQVKQARNKDASSSSRSSKSSNSSKRSSSKSSNSSKRSSSSSSSSSSSSRSSSSSSSSSSNSKSSSSSSKSSSSSSRSRSSSKSSSSSSSSSSSSSSKSSSSRSSSSSSKSSSHHSHSHHSGHLNGSSSSSSSSRSVSHHSHEHHSGHLEDDSSSSSSSSVLSKIWGRHEIYQ
modifications: Phosvitin partially dephosphorylated
notes: Phosvitin extracted from the yolks of chicken eggs and dephosphorylated; estimated about 20-50% dephosphorylated
Consider B1, for which the “Inhibition of IL-8 release as compared to the positive control (in words)” value is on record as “inhibited IL-8 release as compared to the positive control in a dose-dependent fashion”. Further, where the note is “0.1 mg/ml sample”, the “IL-8” value amounted to 1024.7 pg/mL and the “Percent Inhibition Of IL-8 Release” value is 6.4%. Moreover, under “0.5 mg/ml sample”, the “IL-8” value is 830.4 pg/mL and the “Percent Inhibition Of IL-8 Release” value is recorded as 25.8%. Where the note is “1.0 mg/ml sample”, the “IL-8” value turned out to be 686.9 pg/mL and the “Percent Inhibition Of IL-8 Release” value is 38.6%.

B2: Sigma phosvitin (untreated): Chicken phosvitin purchased from Sigma Chemical Co., used as received without dephosphorylation (protein, UniProt P02845 1112-1328, looked up)
Phosvitin: AEFGTEPDAKTSSSSSSASSTATSSSSSSASSPNRKKPMDEEENDQVKQARNKDASSSSRSSKSSNSSKRSSSKSSNSSKRSSSSSSSSSSSSRSSSSSSSSSSNSKSSSSSSKSSSSSSRSRSSSKSSSSSSSSSSSSSSKSSSSRSSSSSSKSSSHHSHSHHSGHLNGSSSSSSSSRSVSHHSHEHHSGHLEDDSSSSSSSSVLSKIWGRHEIYQ
modifications: Phosvitin
notes: Chicken phosvitin purchased from Sigma Chemical Co., used as received without dephosphorylation
B2: the “Inhibition of IL-8 release as compared to the positive control (in words)” value was “did not significantly inhibit the release of IL-8”. Further, where the note is “1.0 mg/ml sample”, the “IL-8” value amounted to 1153.6 pg/mL and the “Percent Inhibition Of IL-8 Release” value was determined as 0%.
